In the supplement of paper PMC10567573:

B1: ADD1 (parent)
chain: LRHSFQKQQREKTRWLNSGRGDEA
B2: KRT18 (parent)
chain: RAQYDELARKNREELDKYWSQQIE

Variants of: B1
Assay: protein stability index of a GFP-peptide fusion (GPS, HEK-293T) (PSI 1-6); higher = more stable
Settings: c terminus: a fixed tail appended
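Further: lentivirally expressed fusions sorted by FACS into six bins by GFP to DsRed ratio, PSI derived from sequencing read proportions per bin multiplied by bin number.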

Protein stability index: each site, then its substitutions
W15: Q 4.84 | R 4.62 | S 4.68 | T 4.65 | V 3.97 | Y 4.17
L16: A 3.66 | C 4.06 | D 4.69 | E 4.72 | F 3.28 | G 4 | H 3.42 | I 3.67 | K 4.22 | M 3.88 | N 3.94 | P 4.57 | Q 4.01 | R 4.03 | S 4.22 | T 3.57 | W 2.35 | Y 3.42
N17: A 3.81 | C 3.15 | D 3.94 | E 3.95 | F 3.14 | G 3.82 | H 2.54 | I 2.7 | K 3.65 | L 3.05 | M 3.05 | P 4.03 | Q 3.83 | R 2.49 | S 3.88 | T 3.4 | V 4.03 | W 2.59 | Y 2.91
S18: A 4.02 | C 3.26 | D 3.11 | E 4.28 | F 2.87 | G 3.92 | H 3.19 | I 3.85 | K 3.67 | L 3.39 | M 3.36 | N 3.96 | P 3.93 | Q 3.55 | R 2.63 | T 3.51 | V 3.53 | W 3.51 | Y 3.79
G19: A 3.82 | C 2.22 | D 4.6 | E 4.29 | F 2.83 | H 3.56 | I 2.73 | K 3.69 | L 3.35 | M 3.57 | N 3.6 | P 3.65 | Q 3.7 | R 3.65 | S 3.81 | T 3.37 | V 2.82 | W 2.63 | Y 3
R20: A 3.84 | C 3.91 | D 4.88 | E 4.28 | F 3.21 | G 3.71 | H 4.05 | I 3.54 | K 4.03 | L 2.24 | M 3.78 | N 3.62 | P 4.17 | Q 3.95 | S 4.12 | T 3.75 | V 3.88 | W 3.26 | Y 3.47
G21: A 4 | C 3.21 | D 4.42 | E 3.99 | F 3.39 | H 3.2 | I 3.42 | K 3.84 | L 3.64 | M 3.4 | N 3.43 | P 3.71 | Q 3.49 | R 3.47 | S 3.63 | T 3.33 | V 3.59 | W 3.03 | Y 3.01
D22: A 3.57 | C 3.18 | E 3.89 | F 3.64 | G 3.62 | H 3.94 | I 2.68 | K 3.4 | L 2.71 | M 3.47 | N 3.69 | P 2.83 | Q 3.74 | R 3.73 | S 3.9 | T 3.29 | V 3.25 | W 1.99 | Y 2.78
E23: A 3.98 | C 3.54 | D 3.6 | F 2.28 | G 3.64 | H 3.23 | I 3.24 | K 2.73 | L 2.38 | M 3.25 | N 3.73 | P 3.75 | Q 3.2 | R 3.49 | S 3.83 | T 3.48 | V 3.47 | W 2.77 | Y 2.66
A24: C 3.51 | D 3.95 | E 4.52 | F 2.69 | G 3.96 | H 3.31 | I 3.15 | K 4.12 | L 3.08 | M 3.56 | N 4.03 | P 3.58 | Q 4.03 | R 3.93 | S 3.9 | T 3.48 | V 3.56 | W 1.65 | Y 3.18

Variants of: B2
Assay: as above
Settings: c terminus: a fixed tail appended

Protein stability index of substitutions, site by site:
R1: A 3.38 | C 2.19 | D 2.87 | E 3.06 | F 2.47 | G 3.12 | H 2.97 | I 2.79 | K 2.29 | L 2.79 | M 2.97 | N 2.99 | P 3.08 | Q 3.07 | S 3.06 | T 3.02 | V 3.71 | W 2.12 | Y 2.29
A2: C 2.48 | D 3.18 | E 3.34 | F 2.73 | G 2.33 | H 3.23 | I 2.5 | K 2.65 | L 2.51 | M 2.65 | N 2.52 | P 3.13 | Q 3.07 | R 3.24 | S 3.25 | T 2.52 | V 3.11 | W 3.13 | Y 2.72
Q3: A 2.68 | C 2.51 | D 3.54 | E 3.19 | F 2.38 | G 3.21 | H 2.54 | I 2.44 | K 3.19 | L 2.55 | M 2.52 | N 4.45 | P 2.94 | R 3.27 | S 2.21 | T 2.89 | V 2.31 | W 2.07 | Y 2.56
Y4: A 3.84 | C 3.44 | D 3.23 | E 3.57 | F 3.52 | G 3.04 | H 3.45 | I 3.47 | K 3.46 | L 2.25 | M 3.18 | N 3.68 | P 3.67 | Q 3.93 | R 4 | S 3.74 | T 3.91 | V 4 | W 2.48
D5: A 2.74 | C 3.33 | E 2.86 | F 2.83 | G 3.09 | H 3.29 | I 2.98 | K 2.84 | L 2.33 | M 2.75 | N 3.17 | P 3.73 | Q 3.38 | R 2.79 | S 2.79 | T 3.57 | V 3.57 | Y 3.28
E6: A 3.3 | C 2.3 | D 3.27 | F 3.15 | G 3.02 | H 3.41 | I 3.05 | K 3.48 | L 2.85 | M 2.99 | N 3.66 | P 4.07 | Q 3.51 | R 3.17 | S 3.24 | T 3.36 | V 3.32 | W 2.42 | Y 3.25
L7: A 3.7 | C 3.42 | D 3 | E 2.75 | F 1.27 | G 3.19 | H 3.62 | I 3.41 | K 3.93 | M 2.38 | N 4.22 | P 4.08 | Q 3.78 | R 3.89 | S 3.84 | T 3.68 | V 3.41 | W 2.13 | Y 3.06
A8: C 2.75 | D 4.2 | E 4.57 | F 3.41 | G 3.72 | H 2.17 | I 3.17 | K 3.85 | L 2.34 | M 2.66 | N 3.54 | P 4.42 | Q 3.75 | R 3.51 | S 3.5 | T 2.33 | V 2.6 | W 1.31
R9: A 3.92 | C 3.6 | D 4.4 | E 3.69 | F 3.88 | G 4.53 | H 3.4 | I 3.34
